Among the data in patent US20170204382A1 are IC50 (ng/mL), conditioned media values, retold here.

First the molecules themselves.
B1: ActRIIB(21-131)-hFc (Fc fusion, not shown: a dimerising Fc or GST)
chain: RGEAETRECIYYNANWELERTNQSGLERCEGEQDKRLHCYASWRNSSGTIELVKKGCWLDDFNCYDRQECVATEENPQVYFCCCEGNFCNERFTHLPEAGGPEVTYEPPPT
B2: ActRIIB(22-131)-hFc (Fc fusion, not shown: a dimerising Fc or GST)
chain: GEAETRECIYYNANWELERTNQSGLERCEGEQDKRLHCYASWRNSSGTIELVKKGCWLDDFNCYDRQECVATEENPQVYFCCCEGNFCNERFTHLPEAGGPEVTYEPPPT
B3: ActRIIB(24-131)-hFc (Fc fusion, not shown: a dimerising Fc or GST)
chain: AETRECIYYNANWELERTNQSGLERCEGEQDKRLHCYASWRNSSGTIELVKKGCWLDDFNCYDRQECVATEENPQVYFCCCEGNFCNERFTHLPEAGGPEVTYEPPPT
B4: ActRIIB(20-131)-hFc (Fc fusion, not shown: a dimerising Fc or GST)
chain: GRGEAETRECIYYNANWELERTNQSGLERCEGEQDKRLHCYASWRNSSGTIELVKKGCWLDDFNCYDRQECVATEENPQVYFCCCEGNFCNERFTHLPEAGGPEVTYEPPPT
B5: ActRIIB(23-131)-hFc (Fc fusion, not shown: a dimerising Fc or GST)
chain: EAETRECIYYNANWELERTNQSGLERCEGEQDKRLHCYASWRNSSGTIELVKKGCWLDDFNCYDRQECVATEENPQVYFCCCEGNFCNERFTHLPEAGGPEVTYEPPPT
B6: ActRIIB(20-132)-hFc (Fc fusion, not shown: a dimerising Fc or GST)
chain: GRGEAETRECIYYNANWELERTNQSGLERCEGEQDKRLHCYASWRNSSGTIELVKKGCWLDDFNCYDRQECVATEENPQVYFCCCEGNFCNERFTHLPEAGGPEVTYEPPPTA
B7: ActRIIB(20-128)-hFc (Fc fusion, not shown: a dimerising Fc or GST)
chain: GRGEAETRECIYYNANWELERTNQSGLERCEGEQDKRLHCYASWRNSSGTIELVKKGCWLDDFNCYDRQECVATEENPQVYFCCCEGNFCNERFTHLPEAGGPEVTYEP

In one experiment the target is T1, GDF11 (UniProt O95390).
T1 sequence (looked up): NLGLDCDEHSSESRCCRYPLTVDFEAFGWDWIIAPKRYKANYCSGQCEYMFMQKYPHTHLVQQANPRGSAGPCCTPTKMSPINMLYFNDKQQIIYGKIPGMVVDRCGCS
Nature of the experiment: cell-based or functional assay.
Consider B1, for which the IC50 (ng/mL), conditioned media was found to be 121 ng/mL.

Turning to B2, the IC50 (ng/mL), conditioned media came to 71 ng/mL.

As for B3, the IC50 (ng/mL), conditioned media came out at 69 ng/mL.

For the molecule B4, the IC50 (ng/mL), conditioned media was determined as 183 ng/mL.

Turning to B5, the IC50 (ng/mL), conditioned media is 60 ng/mL.

In a further experiment the target is T2, Activin A (UniProt P08476).
T2 sequence (looked up): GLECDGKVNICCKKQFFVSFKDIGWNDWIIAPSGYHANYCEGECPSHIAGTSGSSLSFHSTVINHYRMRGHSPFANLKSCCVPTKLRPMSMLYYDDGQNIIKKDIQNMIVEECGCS
As to the kind of experiment: cell-based or functional assay.
The molecule B1 yielded an IC50 (ng/mL), conditioned media of 325 ng/mL.

On to B2, for which the IC50 (ng/mL), conditioned media came out at 100 ng/mL.

In turn, B3 displayed an IC50 (ng/mL), conditioned media of 105 ng/mL.

The molecule B4 returned an IC50 (ng/mL), conditioned media of 201 ng/mL.

Molecule B5 had an IC50 (ng/mL), conditioned media of 43 ng/mL.

The next experiment deals with T1, GDF11. Nature of the experiment: cell-based or functional assay. The source holds these as a separate data set.
As for B4, the IC50 (ng/mL), conditioned media was 120 ng/mL.

Molecule B6 gave an IC50 (ng/mL), conditioned media of 87 ng/mL.

In turn, B7 gave an IC50 (ng/mL), conditioned media of 130 ng/mL.

The target of a further experiment is T2, Activin A. Nature of the experiment: cell-based or functional assay. This is another data set of the same source.
B4 came in with an IC50 (ng/mL), conditioned media of 44 ng/mL.

The molecule B6 had an IC50 (ng/mL), conditioned media of 32 ng/mL.

With B7, the IC50 (ng/mL), conditioned media is 158 ng/mL.
